Laboratory results published in paper PMC11279923, “Assessment of Radiolabelled Derivatives of R954 for Detection of Bradykinin B1 Receptor in Cancer Cells: Studies on Glioblastoma Xenografts in Mice” (Pharmaceuticals, 2024).
Where two headings read alike, the source gives them in different places. Non-standard residues stand in square brackets, D forms with d. Residues, ends and D or L forms follow the SMILES beside them. *: point of attachment. DOTA = O=C(O)CN1CCN(CC(=O)O)CCN(CC(=O)*)CCN(CC(=O)O)CC1; Oic = O=C(O)[C@@H]1C[C@@H]2CCCC[C@@H]2N1; d2Nal = N[C@H](Cc1ccc2ccccc2c1)C(=O)O; αMeF = C[C@](N)(Cc1ccccc1)C(=O)O; Orn = NCCC[C@H](N)C(=O)O; Ahx = NCCCCCC(=O)O

How the values were obtained:
U87MG tumour xenografts = tested on: U87MG tumour xenografts; design: species or system BALBc nu/nu male mice; conditions: mouse, in vivo
Description: Five-week-old BALBc nu/nu male mice (Japan SLC, Inc., Hamamatsu, Japan) were xenografted by subcutaneous injection of U87MG cells (5 × 10^6 cells per 50 μL of culture medium) into their right hind legs. The mice were subjected to biodistribution studies when the tumour weight reached 0.1−0.5 g.
Mice bearing U87MG tumour xenografts were injected via the tail vein with 100 μL of [^111In]In-DOTA-Ahx-R954 (30–74 kBq; 0.01–0.02 nmol) and were sacrificed and dissected 1, 4, and 24 h after administration. […] R954 was co-injected with [^111In]In-DOTA-Ahx-R954, and mice were sacrificed and dissected 1 and 4 h after administration. The tissues of interest were removed and weighed, and radioactivity was determined using an auto-well gamma counter. The results are presented as a percentage of the injected dose per gram (% dose/g).

B1R [1] = target: T1, B1R (Homo sapiens, UniProt P46663); assay: Saturation binding assay with Scatchard analysis on U87MG cells; design: could detect B1R endogenously expressed in glioblastoma cells; host or cells: U87MG human glioblastoma cells (intact, adherent); conditions: tracer 0.7-358 nM, NSB with 100 µM R954, Scatchard analysis, mean of three independent experiments
T1 sequence (P46663 1-353): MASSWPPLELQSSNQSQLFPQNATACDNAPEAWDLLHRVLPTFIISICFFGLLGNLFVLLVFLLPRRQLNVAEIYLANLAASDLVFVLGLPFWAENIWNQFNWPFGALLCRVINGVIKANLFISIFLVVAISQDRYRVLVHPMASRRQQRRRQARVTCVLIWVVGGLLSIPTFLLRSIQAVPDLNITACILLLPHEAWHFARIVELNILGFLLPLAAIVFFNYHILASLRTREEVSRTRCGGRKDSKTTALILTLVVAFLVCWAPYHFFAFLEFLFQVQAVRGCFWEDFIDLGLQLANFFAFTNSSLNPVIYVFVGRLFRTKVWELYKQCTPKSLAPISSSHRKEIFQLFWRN
Description: The affinity of [^111In]In-DOTA-Ahx-R954 for B1R in the cells was measured using an R954 saturation assay with increasing concentrations of [^111In]In-DOTA-Ahx-R954 (range 0.7–358 nM). The Scatchard plot was used to estimate the Kd and Bmax values. The parameters were presented as means of three independent experiments (one assay performed on type I collagen-coated plates and two assays performed on Poly-D-Lysine plates).

B1R [2] = target: T1, B1R; design: could detect B1R endogenously expressed in glioblastoma cells; conditions: B1R+ HEK293T cell membrane; read-out: binding affinity (Kd); cited from earlier work
Text: (§1) Our study has several potential limitations. […] Although we could not evaluate the diagnostic utility of [^111In]In-DOTA-Ahx-R954 by comparing it with previously reported probes for SPECT and PET using parameters obtained under the same experimental conditions, improving the ...

B1R [3] = target: T1, B1R; design: could detect B1R endogenously expressed in glioblastoma cells; host or cells: U87MG human glioblastoma cells (intact, adherent); conditions: lung fibroblast cell membrane; read-out: binding affinity (Kd); cited from earlier work
Text: as §1

U251MG cells = assay: Blocking of [^111In]In-DOTA-Ahx-R954 cell accumulation by B1R antagonist or agonist; assay type: cell-based, human; conditions: 100 µM blocker, 120 min, n = 4
Description: (§2) Human glioblastoma cell lines U87MG and U251MG were obtained from the American Type Culture Collection (Manassas, VA, USA) and kept under standard cell culture conditions (5% CO2, 37 °C). Cells were cultured in Eagle’s minimum essential medium (E-MEM; FUJIFILM Wako Pure Chemical Co.) supplemented with 10% v/v foetal bovine serum (BioWest S.A.S, Nuaillé, France), 1% v/v nonessential amino acids (FUJIFILM Wako Pure Chemical Co.), 1 mM sodium pyruvate (FUJIFILM Wako Pure Chemical Co.), and 1% v/v penicillin–streptomycin (10,000 unit-10 mg/mL; FUJIFILM Wako Pure Chemical Co.). Cells were seeded at a density of 1 × 10^5 cells/well in Poly-D-Lysine 24-well plates (Corning Inc., Corning, NY, USA). After 24 h, the medium was removed, and the cells were washed with 500 μL of 0.01 M PBS (+) (FUJIFILM Wako Pure Chemical Co.) and incubated at 37 °C in 500 μL of Hanks Balanced Salt Solution (+) (HBSS (+); FUJIFILM Wako Pure Chemical Co.) for 10 min. […] The value at 0 min was determined by an assay performed using the same protocol as that used immediately after removing the incubation solution. Cell lysate radioactivity was measured using an auto-well gamma counter (2470 WIZARD^2; PerkinElmer, Inc., Shelton, CT, USA), and the protein content of the lysates was measured using a Pierce™ BCA protein assay kit (Thermo Fisher Scientific, Inc., Waltham, MA, USA). […]

U87MG cells = assay: as above; assay type: cell-based, human; conditions: 100 µM blocker, 120 min, n = 4
Description: as §2

B1R [4] = conditions: B1R agonist; cited from earlier work

Compound: CC[C@H](C)[C@H](NC(=O)[C@@H](Cc1ccc2ccccc2c1)NC(=O)[C@H](CO)NC(=O)[C@](C)(Cc1ccccc1)NC(=O)CNC(=O)[C@@H]1CCCN1C(=O)[C@@H]1C[C@@H]2CCCC[C@@H]2N1C(=O)[C@H](CCCNC(=N)N)NC(=O)[C@H](CCCN)NC(=O)CCCCCNC(=O)CN1CCN(CC(=O)O)CCN(CC(=O)O)CCN(CC(=O)O)CC1)C(=O)O [[^111In]In-DOTA-Ahx-R954, metal not drawn] ({DOTA-Ahx}-[Orn]R[Oic]PG[αMeF]S[d2Nal]I-OH)
- blood-brain barrier penetration (U87MG tumour xenografts): poor
- reduction of radioactivity level in plasma compared to 1 h (U87MG tumour xenografts): 98%
- reduction of radioactivity level in tumour compared to 1 h (U87MG tumour xenografts): 48%
- Kd (B1R [1]): 54.1 ± 18.9 nM

Compound: [^3H](des-Arg^10, Leu^9)-kallidin
- Kd (B1R [2]): 1.9 ± 0.5 nM
- Kd (B1R [3]): 0.33 ± 0.07 nM

Compound: [des-Arg^10]-kallidin
- change in accumulated radioactivity in blocking study (U251MG cells): not in U251MG cells
- change in accumulated radioactivity in blocking study (U87MG cells): significant decrease
- pEC50 (B1R [4]): 9.7
